Laboratory results taken from patent publication US20070274991A1 (published 2007).

Target: T1, intact EGFR expressed on human mammary epithelial cells (HMECs) (human, UniProt P00533 25-1210)
T1 construct: whole, on cells; also called wild-type EGFR
Experiment: radiolabeled antibody on parental HMECs
Method: To measure the effect on EGFR and EGFRvIII signaling of a given antibody binding to EGFR or EGFRvIII, radiolabeled antibodies were added to cultures of the HMECs described in the table above. […] When a non-neutralizing radiolabeled antibody binds to EGFR on a mammalian cell, the antibody will be internalized at a high rate if a ligand is present or if the EGFR is constitutively signaling for some other reason. When a neutralizing radiolabeled antibody binds to EGFR, signaling will stop and signaling-stimulated endocytosis will also stop.
In brief, radiolabelled antibodies were added to culture parental HMECs and to HMECs expressing EGFRvIII. At times of 0, 1, 2, 3, 5 and 10 minutes, cell samples were withdrawn, washed, and then acid-stripped to remove and measure surface-bound radiolabeled antibody. The cells were then lysed and the remaining radiolabel was measured to determine levels of internalized antibody.

binding result: binds
B1: EMD72000 (antibody, V domains shown)
VH: QVQLVQSGAEVKKPGASVKVSCKASGYTFTSHWMHWVRQAPGQGLEWIGEFNPSNGRTNYNEKFKSKATMTVDTSTNTAYMELSSLRSEDTAVYYCASRDYDYDGRYFDYWGQGTLVTVS
VL: DIQMTQSPSSLSASVGDRVTITCSASSSVTYMYWYQQKPGKAPKLLIYDTSNLASGVPSRFSGSGSGTDYTFTISSLQPEDIATYYCQQWSSHIFTFGQGTKVEIK
notes: Used fluorescently labeled in yeast display and radiolabeled in the internalization assay; also called anti-EGFR antibody EMD72000; humanized version of the murine antibody 425
